The target in test [1] is Cy3-labeled GLP-1R-T378SphK (UniProt P43220).
The target of the next test is GLP-1R-T378SphK (UniProt P43220).
The target of a further test is wild-type GLP-1R (UniProt P43220).

Turning to GLP-1 peptide, the GLP-1-induced cAMP accumulation in transfected HEK293T cells, pEC50 in test [1] is 10.4; in the test with GLP-1R-T378SphK it was 10.3; in the test with wild-type GLP-1R, 10.7.

These data come from article PMC5753752.
